Test: soluble on expression in E. coli; label from the status in PepcDB or PDB records

Row | Sequence | soluble on expression in E. coli
1 | MIKYSIRGENIEVTEAIREYVETKLSKVEKYFNEAQELDTRVNLKVYREKTAKVEVTILIDSITLRAEDVSQDMYGSIDLVVDKIERQIRKNKTKIAKKYREKIPASQVFTTEFEAEPDEEAVSQRIVRTKNVNLKPMDVEEALLQMELLGHDFFIYTDAEDNTTNVLYKREDGELGLIEAKGNLEHHHHHH | soluble
2 | MILAIFSLRLLLIPTIDEPESIVTQLENAIDPVTQVPDFSAITDVAEKKRAFFDFLRPIVQQQNAIIASEREFITDMLAIVENGNALSDSQSAQLNQIFDKYLYAARNVDAKSLNSLLKRVDIIPESMVLIQAANESGWGSSRFAREGFNFFGEWCFSNGCGIVPSSRGSGKTHEVKIFPSVDASVSSYMRNLNSNTAYNLFRSIRADLRAQEAELNADQLIYGLVNYSERQEAYIDELLDMLRHNAKYLVKADV | soluble
3 | MILFDKNKRILKKYAKMVSKINQIESDLRSKKNSELIRLSMVLKEKVNSFEDADEHLFEAFALVREAARRTLGMRPFDVQVMGGIALHEGKVAEMKTGEGKTLAATMPIYLNALIGKGVHLVTVNDYLARRDALWMGPVYLFLGLRVGVINSLGKSYEVVWKNPDLARKAIEENWSVWPDGFNGEVLKEESMNKEAVEAFQVELKEITRKEAYLCDVTYGTNNEFGFDYLRDNLVLDYNDKVQRGHFYAIVDEADSVLIDEARTPLIISGPSKESPSVYRRFAQIAKKFVKDKDFTVDEKARTIILTEEGVAKAEKIIGVENLYDPGNVSLLYHLINALKALHLFKKDVDYVVMNGEVIIVDEFTGRLLPGRRYSGGLHQAIEAKEGVPIKEESITYATITFQNYFRMYEKLAGMTGTAKTEESEFVQVYGMEVVVIPTHKPMIRKDHDDLVFRTQKEKYEKIVEEIEKRYKKGQPVLVGTTSIEKSELLSSMLKKKGIPHQVLNAKYHEKEAEIVAKAGQKGMVTIATNMAGRGTDIKLGPGVAELGGLCIIGTERHESRRIDNQLRGRAGRQGDPGESIFFLSLEDDLLRIFGSEQIGKVMNILKIEEGQPIQHPMLSKLIENIQKKVEGINFSIRKTLMEMDDVLDKQRRAVYSLRDQILLEKDYDEYLKDIFEDVVSTRVEEFCSGKNWDIESLKNSLSFFPAGLFDLDEKQFSSSEELHDYLFNRLWEEYQRKKQEIGEDYRKVIRFLMLRIIDDHWRRYLEEVEHVKEAVQLRSYGQKDPIVEFKKETYYMFDEMMRRINDTIANYVLRVVKVSEKDEKEAKEELGKIRLVHEEFNLVNRAMRRATEKKKKKDGLHSFGRIRVKR | soluble
4 | MILIFEEHRMQLSSEQCDFFFTNGYLVINNFFSESVCDLLKQRIETLLENNQAEIPKTIFSTQTNEHAKKQYFLDSGDKIHYFFEPGAFDEAGDWLRPFNQSINKIGHALHELDPVFRQYSRDDRIKKIAHQLGLKTLGLVQSMYIFKQPGIGAEVLCHQDSTYIFGEDSDALGFWFAIEDATLENGCLEVIPSPCTTPLKQRMFRRENEIYFENFDSSPWPEENSVPLPVKKGALIILHGRVPHKSQANFSNQSRHAYTLHLVDISLPYPEKNWLQWPNGIPCLLEHHHHHH | soluble
5 | MILIRLEPGMDLMEEMRAAFSEGVVVTGIGSLHRVRIRTADESELTVEGPLEILSLQGTISPDGVHIHIAVADSEGRVTGGHLRGDSPVRTTAEIAVIPYQGVLRRVMDRRTGYRELLVLE | not soluble
6 | MILLLAGTSDARELAVMIQQAGYNVTATVVTDHAAEQLRSAGIRAYVGRLDASQLADLAKAEGAKAIVDASHPFAEEASKNAMQAAADAGLPYIRYERQASSFSSEKVTFVDSYEEAADLAAEKGGVVMLTTGSKTIDIFAARLIGRPDVKVIARMLPRKDNLDKCERLGFSQEQIVMMQGPFTKELDRALYRHFGVTVVVTKESGKVGFVDEKIAAAEELGIDVIVIRRPRLSYGIVHHDFAGVLDALKQHAPLPTV | not soluble
7 | MILNKKKLYFETQAFTDKLINEISINMSKRKELINCYDIEAYVKETENIDFFDYPFKKQSKKLIWGSVTKIGDVTMVATAQHLKIEIKNFTKMHEIIHHYFDYTTDMPNNEKSFDTLLIKKGYLPEDYPKEFRANKGAGMLLINKKALKYAFSTYDDLEKMASFFNVNDIVLKIRILDELIYSHNLSYKQANLIYNSYYFQQQTQLKEILLK | not soluble
8 | MILNNESNKKKKFEQFFIMTYPKVKAFAWKLLKSEEDAEDIAQDIFAKLWTNPEIWENQETWNSYIYTMVRNHIYNFLKHKSIRQTYQEQCTKEEPAISETDIHDQLYAKESELLIKLTIANMPEQRRKIFRMSRTQEKSNQEIADELNISIRTVERHIYLALIDLKKVLLTLFFFYLG | not soluble
9 | MILQELPDLEELFLCLNDYETVSCPSICCHSLKLLHITDNNLQDWTEIRKLGVMFPSLDTLVLANNHLNAIEEPDDSLARLFPNLRSISLHKSGLQSWEDIDKLNSFPKLEEVRLLGIPLLQPYTTEERRKLVIARLPSVSKLNGSVVTDGEREDSERFFIRYYVDVPQEEVPFRYHELITKYGKLEPLAEVDLRPQSSAKVEVHFNDQVEEMSIRLDQTVAELKKQLKTLVQLPTSNMLLYYFDHEAPFGPEEMKYSSRALHSFGIRDGDKIYVESKTK | soluble
10 | MILRRPSQADKEAILDMMGEFEREKSVHDGGFWNADNFIYEEWLEENLQSEAGLNIPENWVPAIQLVSFNESGHALGFLHLRLRLNGRLLEKGGHIGYSIRPSERGKGYAKESLRQGLQVAKEKNIQRALVTCSTENPASRAVILANGGQLEDICNETERYWIDLE | not soluble
11 | MIMDLASLRAQQIELASSVIREDRLDKDPPDLIAGADVGFEQGGEVTRAAMVLLKYPSLELVEYKVARIATTMPYIPGFLSFREYPALLAAWEMLSQKPDLVFVDGHGISHPRRLGVASHFGLLVDVPTIGVAKKRLCGKFEPLSSEPGALAPLMDKGEQLAWVWRSKARCNPLFIATGHRVSVDSALAWVQRCMKGYRLPEPTRWADAVASERPAFVRYTANQPLEHHHHHH | soluble
12 | MIMKVGIMSDTHDNLSAIRLAVEFFNREGVNLVLHAGDFVAPFVAKELSNLKAPLKGVFGNNDGEREGLREKLGIKDDILTLNLDGLKVVMLHGTDERVVEAFAKSQLYDIVIRGHTHKYGIQEVGRTIVVNPGEVCGYLTGIKSVALLNTTEREVRIINLKTGEILGIISLLEHHHHHH | not soluble
13 | MIMLIKKLLETTAAAEEKARQLAEMETDEAWAVYLAEAERQRKLWQYVHYLVAGANADGRAEREQSKAGAPRCDLLQAMAAAEWEKAMLCQNVCQSLNGAAKQAVDAVFRQALRYSGQFLAMAYDERARQTAD | not soluble
14 | MINHECINQPYGRILKFSRVQAKEMLTADELKENFAKNGQTLAQWARENGFKPRDVYLVIGGQRKGNYGKGHEIAKKLGLK | not soluble
15 | MINKDEEVANRFSDPSKKLVEYVTDFSDMRDEDIELTKPIYENYGNFQLLNETGIIRTDEEIKELYNCKGEFGSTDEVTDMSF | not soluble
16 | MIPDFQTLMLPLLKCVSDGQEHKYRDIIEHLAAEFEVTDEERKELLASGSKAVFDNRVGWARTYLKKAGLLDSPKRAILIISDLGREILSKNPPKIDTKYLRRFPAFIEFQNGYRNDGETEEESITEKIHEQTPEEVLDKAYQRIRKSLASELLNKVIDLSPAFFERLVVELLVKMGYGGSIKDAGKALGKSGDEGIDGTIKEDKLGLDIIYIQAKRWRPGNVVGRPELQKFVGALAGQGAKKGIFITTSNFTKEALTYTPRNETKIVLIDGEQLTQLMIDYNLGCTTQQTYELKKLDSDYFGEE | not soluble
17 | MIPLPSGTKIWLVAGITDMRNGFNGLAAKVQTTLKDDPMSGHVFIFRGRNGSQVKLLWSTGDGLCLLTKRLERGRFAWPSARDGKVFLTPAQLAMLLEGIDWRQPKRLLTSLTML | not soluble
18 | MIQDIKRSSAPAAPAPVTVLKMWPNEMRSQSLEENLDAKLEQFKKEHSPVKERGNCSKTRKISENQPPPSFEVVMAKIRGIQESLKNMEDQMNEEERGKEMPDSTENSFDFSKIWQYFDQTRIEEIRALLKKRQFPDSP | not soluble
19 | MIQIEDVVVSFDVLREKFLCNLDACKGECCIEGDAGAPVELDEVEKLEEVLPIIWEELSPEARAVIEKQGVVYTDQEGDLVTSIVNNKDCVFTCYDEKGCCYCAIEKAYRDGKTDFYKPVSCHLYPIRIGDYGPYKAVNYHRWDVCKAAVLLGKKENVAVYQFLKEPLIRKFGEKWYQELEVAVKELKAHDMI | not soluble

Source: the DeepSol protein solubility set
